# Test results taken from the RNAGym collection of RNA variant scans (doi:10.1021/acssynbio.7b00057).
# B1: Pistol ribozyme (parent)
# chain: GGGUCGUUGUUCCAUAAUCGCGUGGAUAUGGCACGCAAGUUUCUACCGGGCACCGUAAAUGUCCGACUGGAGCCGUUCGGGCGGCUAUAAACAGACCUCAGGCCCGAAGCGUGGCGGCACCUGCCGCCGGUGGUAAAAAAGAUCGGAAGAGCACACGUCU
# Variants of: B1
# Test: aptazyme ON/OFF ratio, guanine; higher = stronger switching; co-transcriptional cleavage with and without guanine
row,Variant,aptazyme ON/OFF ratio
1,U7G G9A U10G U11G C12G C13U,1.16
2,U7G G9A U10G U11G C12G C13A,1.11
3,U7G G9A U11A C12U,1.41
4,U7G G9A U11A C12A,1.12
5,U7G G9A U11A C12G,1.21
6,U7G G9A U10C U11C C12A C13U,1.12
7,U7G G9A U10C U11C C12A C13A,1.11
8,U7G G9A U10C U11C C12A C13G,1.19
9,U7G G9A U10G U11A C12G,1.07
10,U7G G9A U10G U11A C12A,1.09
11,U7G G9A U10G U11A C12U,1.07
12,U7G G9A U10C U11A C12U,1.18
13,U7G G9A U10C U11A C12G,1.15
14,U7G G9A U10C U11A C12A,1.1
15,U7G G9A U10G U11A C12U C13A,1.1
16,U7G G9A U10G U11A C12U C13G,1.05
17,U7G G9A U10G U11A C12U C13U,1.07
18,U7G G9A U10A U11G C13G,1.13
19,U7G G9A U10A U11G C13U,1.14
20,U7G G9A U10A U11G C13A,1.09
21,U7G G9A U10A U11C C12A,1.24

row,Variant,aptazyme ON/OFF ratio
1,U7G G9A U10A U11C C12U,1.05
2,U7G G9A U10A U11C C12G,1.22
3,U7G G9C C12U C13U,1.33
4,U7G G9C C12U C13A,1.3
5,U7G G9C C12U C13G,1.18
6,U7G G9A U10G C12U C13A,1.11
7,U7G G9A U10G C12U C13G,1.11
8,U7G G9A U10G C12U C13U,1.1
9,U7G G9C U10A U11A C12U C13G,1.25
10,U7G G9C U10A U11A C12U C13A,1.29
11,U7G G9C U10A U11A C12U C13U,1.29
12,U7G C13G,1.05
13,U7G C13A,1.08
14,U7G C13U,1.09
15,U7G G9A U10G U11A C13G,1.06
16,U7G G9A U10G U11A C13U,1.07
17,U7G G9A U10G U11A C13A,1.05
18,U7G G9A C13A,1.24
19,U7G G9A C13U,1.49
20,U7G G9A C13G,1.11
21,U7G G9A U11A C12A C13U,1.15

row,Variant,aptazyme ON/OFF ratio
1,U7G G9A U11A C12A C13G,1.09
2,U7G G9A U11A C12A C13A,1.18
3,U7G G9A U10C U11G C13U,1.14
4,U7G G9A U10C U11G C13G,1.17
5,U7G G9A U10C U11G C13A,1.09
6,U7G,1.89
7,U7G G9C U10A C13G,1.07
8,U7G G9C U10A C13A,1.2
9,U7G G9C U10A C13U,1.16
10,U7G G9A U10C U11G C12U C13A,1.11
11,U7G G9A U10C U11G C12U C13G,1.11
12,U7G G9A U10C U11G C12U C13U,1.14
13,U7G G9A U11A C12G C13G,1.13
14,U7G G9A U11A C12G C13U,1.12
15,U7G G9A U11A C12G C13A,1.08
16,U7G G9A U10G U11C C13A,1.08
17,U7G G9A U10G U11C C13U,1.08
18,U7G G9A U10G U11C C13G,1.11
19,U7G G9C C12G,1.91
20,U7G G9C C12A,1.99
21,U7G G9C C12U,1.79

row,Variant,aptazyme ON/OFF ratio
1,U7G G9A U10C U11C C12U C13U,1.07
2,U7G G9A U10C U11C C12U C13A,1.05
3,U7G G9A U10C U11C C12U C13G,1.04
4,U7G G9A U11A C13U,1.2
5,U7G G9A U11A C13A,1.14
6,U7G G9A U11A C13G,1.1
7,U7G G9C U10A,3.1
8,U7G G9A U11C C12G,1.27
9,U7G G9A U11C C12A,1.34
10,U7G G9A U11C C12U,1.39
11,U7G G9A U10A U11A C13U,1.2
12,U7G G9A U10A U11A C13A,1.14
13,U7G G9A U10A U11A C13G,1.09
14,U7G G9A U10C U11G C12A C13G,1.1
15,U7G G9A U10C U11G C12A C13U,1.11
16,U7G G9A U10C U11G C12A C13A,1.07
17,U7G G9A U11G C12G,1.17
18,U7G G9A U11G C12U,1.3
19,U7G G9A U11G C12A,1.17
20,U7G G9A U11C C12G C13A,1.11
21,U7G G9A U11C C12G C13U,1.13
